Experimental data published in US20080219971A1 (VACCINEX, published 2008).

Tests used:
Human CD100 [1] = target: T1, Human CD100 (human, UniProt Q92854 22-734, limits assumed); experiment: affinity testing, reference value of MAb 1808 on the same day; unit not printed (nM as in Table 3); MAb 1808 reference on the day MAb 2117 was measured
T1 construct: also called SEMA4D; Hu CD100
T1 sequence (looked up): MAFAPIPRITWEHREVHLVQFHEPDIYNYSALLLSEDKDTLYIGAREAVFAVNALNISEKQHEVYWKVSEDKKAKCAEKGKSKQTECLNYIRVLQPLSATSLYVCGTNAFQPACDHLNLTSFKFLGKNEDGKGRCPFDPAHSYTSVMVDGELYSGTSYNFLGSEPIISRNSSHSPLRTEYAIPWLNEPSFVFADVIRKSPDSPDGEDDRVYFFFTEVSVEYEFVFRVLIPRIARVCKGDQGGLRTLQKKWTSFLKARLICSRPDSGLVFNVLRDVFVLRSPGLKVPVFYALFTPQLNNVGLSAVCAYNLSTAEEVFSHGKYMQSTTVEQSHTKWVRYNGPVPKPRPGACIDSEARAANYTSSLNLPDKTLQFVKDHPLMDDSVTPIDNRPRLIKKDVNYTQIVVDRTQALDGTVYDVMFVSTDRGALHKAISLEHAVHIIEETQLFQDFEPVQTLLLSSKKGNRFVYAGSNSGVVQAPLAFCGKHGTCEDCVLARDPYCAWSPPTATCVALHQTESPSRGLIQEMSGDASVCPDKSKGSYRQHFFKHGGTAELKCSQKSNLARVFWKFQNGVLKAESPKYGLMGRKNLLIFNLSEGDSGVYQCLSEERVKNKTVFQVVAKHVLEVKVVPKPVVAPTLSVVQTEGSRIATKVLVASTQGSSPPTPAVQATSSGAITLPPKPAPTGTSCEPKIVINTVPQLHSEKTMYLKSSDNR

Human CD100 [2] = target: T1, Human CD100; experiment: affinity testing, reference value of MAb 1808 on the same day; unit not printed (nM as in Table 3); MAb 1808 reference on the day MAb 2139 was measured
Human CD100 [3] = target: T1, Human CD100; experiment: affinity testing, reference value of MAb 1808 on the same day; unit not printed (nM as in Table 3); MAb 1808 reference on the day MAb 2220 was measured
Human CD100 [4] = target: T1, Human CD100; experiment: affinity testing, reference value of MAb 1808 on the same day; unit not printed (nM as in Table 3); MAb 1808 reference on the day MAb 2163 was measured
BSA = target: T2, BSA (UniProt P02769 25-607); experiment: ELISA
T2 construct: Negative control antigen

streptavidin = target: T3, streptavidin (UniProt P22629 37-163, limits assumed); experiment: ELISA
T3 construct: Negative control antigen

human serum albumin = target: T4, human serum albumin (human, UniProt P02768 25-609); experiment: ELISA
T4 construct: Negative control antigen

huErb2-Fc = target: T5, huErb2-Fc (human, UniProt P04626 23-652); experiment: ELISA
T5 construct: Negative control antigen; also called huErb2-Fc antigen

Human CD100 [5] = target: T1, Human CD100; experiment: ELISA method of Friguet et al.; column head 'Affinity (nM) IC50 ELISA'; antigen not named
Description: Antibody affinity was measured according to the ELISA method described in Friguet et al. (1985) J Immunol Methods 77(2):305-19.

Human CD100 [6] = target: T1, Human CD100; experiment: affinity testing, reference value of MAb 1808 on the same day; unit not printed (nM as in Table 3); MAb 1808 reference on the day MAb 2191 was measured
Human CD100 [7] = target: T1, Human CD100; experiment: affinity testing, reference value of MAb 1808 on the same day; unit not printed (nM as in Table 3); MAb 1808 reference on the day MAb 2125 was measured
Human CD100 [8] = target: T1, Human CD100; experiment: affinity testing, reference value of MAb 1808 on the same day; unit not printed (nM as in Table 3); MAb 1808 reference on the day MAb 2208 was measured
Human CD100 [9] = target: T1, Human CD100; experiment: affinity testing, reference value of MAb 1808 on the same day; unit not printed (nM as in Table 3); MAb 1808 reference on the day MAb 2216 was measured
Human CD100 [10] = target: T1, Human CD100; experiment: affinity testing, reference value of MAb 1808 on the same day; unit not printed (nM as in Table 3); MAb 1808 reference on the day MAb 2202 was measured
Human CD100 [11] = target: T1, Human CD100; experiment: affinity testing, reference value of MAb 1808 on the same day; unit not printed (nM as in Table 3); MAb 1808 reference on the day MAb 2144 was measured

T2 sequence (P02769 25-607 limits assumed): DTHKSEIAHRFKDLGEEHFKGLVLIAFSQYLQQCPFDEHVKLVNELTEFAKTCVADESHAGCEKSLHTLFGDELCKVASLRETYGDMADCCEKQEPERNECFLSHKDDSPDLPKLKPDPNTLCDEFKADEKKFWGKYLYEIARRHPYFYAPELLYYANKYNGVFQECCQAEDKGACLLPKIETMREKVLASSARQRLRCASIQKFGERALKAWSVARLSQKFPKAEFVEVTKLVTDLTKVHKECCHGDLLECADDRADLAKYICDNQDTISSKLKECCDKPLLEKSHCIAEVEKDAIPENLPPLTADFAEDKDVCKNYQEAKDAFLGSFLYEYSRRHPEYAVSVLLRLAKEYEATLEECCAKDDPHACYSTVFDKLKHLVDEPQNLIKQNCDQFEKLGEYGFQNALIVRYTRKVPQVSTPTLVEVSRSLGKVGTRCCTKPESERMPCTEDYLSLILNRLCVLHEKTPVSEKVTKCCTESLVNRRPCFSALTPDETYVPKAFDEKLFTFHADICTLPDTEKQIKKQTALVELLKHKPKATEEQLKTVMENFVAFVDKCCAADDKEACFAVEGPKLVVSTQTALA
T3 sequence (P22629 37-163 limits assumed): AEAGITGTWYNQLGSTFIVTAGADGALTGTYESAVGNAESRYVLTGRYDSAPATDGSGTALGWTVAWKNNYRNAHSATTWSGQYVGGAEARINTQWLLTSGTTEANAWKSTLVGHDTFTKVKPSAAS
T4 sequence (P02768 25-609 limits assumed): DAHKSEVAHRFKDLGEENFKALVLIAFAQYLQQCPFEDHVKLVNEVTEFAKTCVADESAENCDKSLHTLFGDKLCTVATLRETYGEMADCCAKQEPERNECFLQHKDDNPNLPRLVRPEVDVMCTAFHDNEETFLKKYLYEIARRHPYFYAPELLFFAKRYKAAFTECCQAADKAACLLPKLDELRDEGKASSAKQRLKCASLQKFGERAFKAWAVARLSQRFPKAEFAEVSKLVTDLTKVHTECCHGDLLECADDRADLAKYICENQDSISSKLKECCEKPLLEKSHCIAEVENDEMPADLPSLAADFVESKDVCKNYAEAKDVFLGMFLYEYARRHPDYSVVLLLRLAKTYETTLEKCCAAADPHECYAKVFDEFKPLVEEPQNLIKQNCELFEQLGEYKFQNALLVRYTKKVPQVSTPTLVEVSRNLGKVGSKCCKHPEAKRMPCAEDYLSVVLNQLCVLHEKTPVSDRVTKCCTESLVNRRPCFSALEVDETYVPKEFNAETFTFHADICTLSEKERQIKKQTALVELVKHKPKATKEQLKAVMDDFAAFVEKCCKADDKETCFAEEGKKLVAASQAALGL

B1: MAb 1808 (antibody, human IgG4, V domains shown)
VH: QVQLVQSGAEVKKPGSSVKVSCKASGYTFTDYYMDWVRQAPGQGLEWMGRVNPYHGGATYNQKFKGRVTITADKSTSTAYMELSSLRSEDTAVYYCAREENSYDGYYGMDYWGQGTLVTVSS
VL: DIVMTQSPLSLPVSPGEPATINCKSSQSLFNSGNQKNYLAWYLQKPGQPPKLLIYGASTRESGVPDRFSGSGSGTDFTLTISSLQAEDVAVYYCQNDHTYPYTFGQGTKLEIK
notes: Humanized BD16, fully human frameworks, human IgG4; also called H1651/L284
- Kd (Human CD100 [1]): 0.57 nM
- Kd (Human CD100 [2]): 0.71 nM
- Kd (Human CD100 [3]): 0.12 nM
- Kd (Human CD100 [4]): 0.12 nM
- binding result (BSA): no binding
- binding result (streptavidin): no binding
- binding result (human serum albumin): no binding
- binding result (huErb2-Fc): no binding
- Kd (Human CD100 [5]): 0.13 nM
- Kd (Human CD100 [6]): 0.13 nM
- Kd (Human CD100 [7]): 0.57 nM
- Kd (Human CD100 [8]): 0.12 nM
- Kd (Human CD100 [9]): 0.12 nM
- Kd (Human CD100 [10]): 0.12 nM
- Kd (Human CD100 [11]): 0.5 nM
